Results: the nanobody polyreactivity screen of Harvey et al. (2022)

Test: yeast display, Sf9 membrane polyspecificity reagent, FACS + sequencing; frameworks hold sequencing errors
Procedure, shortened: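 A nanobody's polyreactivity label depends on the gate it was sorted from. Yeast display cells were stained with 10% biotinylated, detergent-solubilized Sf9 membrane reagent for 1 hour at 4 °C, enriched on streptavidin microbeads and sorted by FACS. The low and high (top ~1%) gates were set on anti-HA fluorescence for expression and streptavidin fluorescence for reagent binding.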

Row | Sequence | polyreactivity (PSR sort gate)
1 | QVQLVESGGGLVQEGGSLRLSCAASGFTFPYYAMGWYRQAPGKERELVAAITSSGTITYYADSVKGRFTISRDNAKNTVYLQMNSLKPEDTAVYYCAARFSSTRYLQWYYYWGQGTQVTVSS | high polyreactivity
2 | QVQLVESGGGLVQEGGSLRLSCAASGLIFNRYAMGWYRQAPGKERELVAAITSRGGRTYYADSVKGRFTISRDNAKNTVYLQMNSLKPEDTAVYYCNRTPTGSYLYGMDYWGQGTQVTVSS | high polyreactivity
3 | QVQLVESGGGLVQEGGSLRLSCAASGRIFDENAMGWYRQAPGKERELVAAISSGDSTKYADSVKGRFTISRDNAKNTVYLQMNSLKPEDTAVYYCAAARNHGLVGSESVGRNDYWGQGTQVTVSS | low polyreactivity
4 | QVQLVESGGGLVQEGGSLRLSCAASGRIFENNAMGWYRQAPGKERELVAAITSGGSTYYADSVKGRFTISRDNAKNTVYLQMNSLKPEDTAVYYCNVTFRVDPWTRTGYDYWGQGTQVTVST | high polyreactivity
5 | QVQLVESGGGLVQEGGSLRLSCAASGRIFNGYAMGCYRQAPGKERELVAAINSSGGSTYYADSVKGRFTISRDNAKNTVYLQMNSLKPEDTAVYYCARVSYHYRTYDYWGQGTQVTVSS | high polyreactivity
6 | QVQLVESGGGLVQEGGSLRLSCAASGRIFNTNAMGWSRQAPGKERELVAGITDSGDSTYDADSVKGRFTISRDNAKNTVYLQMYSLKPEDTGVYYCATDPASPYIYDYWGQGTQVTVSS | low polyreactivity
7 | QVQLVESGGGLVQEGGSLRLSCAASGRIFPYYAMGWYRQAPGKERELVATITSGGSTYYADSVKGRFTISRDNAKNTVYLQMNSLKPEDTAVYYCAARYPSIYYYRYDYWGQGTQVTVSS | high polyreactivity
8 | QVQLVESGGGLVQEGGSLRLSCAASGRTFADYTMGWYRQAPGKERELVAAISFSGGSTYYEDSVKGRFTISRDNAKNTVYLQMNSLKPEDTAFYYCAAGHKRRAPRYYYWGQGTQVTVSS | high polyreactivity
9 | QVQLVESGGGLVQEGGSLRLSCAASGRTFKKYAMGWYRQAPGKERELVAAITGSGGSTYYADSVKGRFTISRDNAKNTVYLQMNSLKPEDSAVYYCAAYAYGVWHSQDGGNYWGQGTQVTVSS | low polyreactivity
10 | QVQLVESGGGLVQEGGSLRLSCAASGRTFSRYVMGWYRQAPGKERELVAAIRGSGGGTYYADSVKGRFTISRDNAKNTVYLQMNSLKPEDTAVYYCNVVRSTVLYDYWGQGTQVTVSS | high polyreactivity
11 | QVQLVESGGGLVQEGGSLRLSCAASGSIFGGYVMGWYRQAPGKERELVAAITSGGSTYYADSVKGRFTISRDNAKNTVYLQMNSLKPEDTAVYYCAKDYGDWGQGTQVTVSS | low polyreactivity
12 | QVQLVESGGGLVQEGGSLRLSCAASGSIFQYYALGWYRPAPGKERELVAAISSGGRTNYADSVKGRFTISRDNAKNSVYLQMNSLKPEDTAVYYCAAARYYYQVYRWEYDYWGQGTQVTVSS | high polyreactivity
13 | QVQLVESGGGLVQEGGSLRLSCAASGSIFRFYVMGWYRQAPGKERELVAAISIGGSTNYADSVKGRFTISRDNAKNTVYLQMNSRKPEDTAVYYCAADDWYGAGLPHGTEFDYWGQGTQVTVSS | low polyreactivity
14 | QVQLVESGGGLVQEGGSLRLSCAASGSIFRVNTMGWYRQAPGKERELVATISSGARTNYADSVKGRFTISRDNAKNTVYLQMNSLKPEDTAVYYCAADRSWGYPRWFTSRYDYWGQGTQVTVSS | high polyreactivity
15 | QVQLVESGGGLVQEGGSLRLSCAASGSNLKGYAMGWYRQAPGKERELVARITRGGSTNYADSVKGRFTISRDNAKNTVYLQRNSLKPEDTAVYYCNKSGRWSARSASREVGDDYWGQGTQVTVSS | low polyreactivity
16 | QVQLVESGGGLVQEGGSLRLSCAASGSTFAYNAKGWYRQAPGKERELVARISSSGDITYDADSVKGRFTISRDNAKNTVYLQMNSLKPEDTAVYYCAKRYLTRYKGYYYWGQGTQVTVSS | high polyreactivity
17 | QVQLVESGGGLVQEGGSLRLSCAASGSTFDIYAMGWYRQAPGKERELVAAIRGRGGSTYYADSVKGRFTISRDNGKNTVYLQMNSLKPEDTAVYYCAADSYATRYYYWGQGTQVTVSS | high polyreactivity
18 | QVQLVESGGGLVQEGGSLRLSCAASGSTFEYNAMGWYRQAPGKERELVADISWRGGGTYYADSVKGRFTISRDNAKNTVYLQMNSLKPEDTAVYYCNTVSRNGFYRTRHDYWGQGTQVTVSS | low polyreactivity
19 | QVQLVESGGGLVQEGGSLRLSCAASGSTFHDNAMGWYRQAPGKERELVASITGSSGSTYYADSVKGRFTISRDNAKNTVYLQMNSLKPEDTAVYYCADEGSRWYYFFYGGGGYWGQGTQVTVSS | low polyreactivity
20 | QVQLVESGGGLVQEGGSLRLSCAASGSTFHGYAMGWYRQAPGKERELVASISWSGGRTYYADSVKGRFTISRDNAKNTVYLQMNSMKPEDTAVYYCAAETGGLGGDYLGQGTQVTVSS | low polyreactivity
21 | QVQLVESGGGLVQEGGSLRLSCAASGSTFWANAMGWYRQAPGKERELVAGITWNAGSTYYADSVKGRFTISRVDANNSVYLHMNSLKPEDTAVYYCAAFYHFQGWGPGYISWGQGTQVSVSS | low polyreactivity
22 | QVQLVESGGGLVQEGGSLRLSCAASGTFYRYAMGWYRQAPGKERELVAAISRSGGSTYYADSVKGRFTISRDNAKNTVYLQMNSLKPEDTAVYYCAAYSRSFYLASLYDYWGQGTQVTVSS | high polyreactivity

Row | Sequence | polyreactivity (PSR sort gate)
23 | QVQLVESGGGLVQEGGSLRLSCAASGYIFYYYAMGRYIQAPGKERELVAAISTSDTRTFYADSVKGRFTISRDNAKNTVYLQMNSRKPEDTAVYFCAASLYKGGPNYGYEYWGQGTQVTVSS | low polyreactivity
24 | QVQLVESGGGLVQEGGSLRLSCAAYGRIFAPYSMGWYRQAPGKERELVAAITSGGSTNYADSVKGRFTISRDNAKNTVYLQMNSLKPEDTSVYYCASEASYNYVKYVVTYVYWGQGTQVTVSS | high polyreactivity
25 | QVQLVESGGGLVQEGGSLRLSCASSGRIFDYYAMGWYRQAPGKESELVAAISSSVGNTYYADSVKGRFTISRDNAKNTVYFQMNRLKQEDTAVYYFADYSYVRSSYEVEYDYWGQGTQVTVSS | low polyreactivity
26 | QVQLVESGGGLVQEGGSLRLSWAASGITFGGYAMGWYRQAPGKERELVAAISRGGGSTNYADSVKGRFTISLDNANNTVYLQMNSLKPEDTAVYYCNARRQNSRYDYWGQGTQVTVST | low polyreactivity
27 | QVQLVESGGGLVQEGGSLSLSCAASGYIFYIYAMGWYRQAPGKERELVATISWSGGDTYYADSVKGRFTISRDNANNTVYLQMNSLNPEDTAVYYCATEVGQSWAGDGDYEYWGQGTQVTVSS | low polyreactivity
28 | QVQLVESGGGLVQGGGSLRLSCAASGFTFGRYTMGWYRQAPGKERELVAPISWSGGSTFYADSVKGRFTISRDNAQNTVYFQMNSLKPEDTAVYNCDTRLKSVSGGYNYWGQGTQVTVSS | high polyreactivity
29 | QVQLVESGGGLVQGGGSLRLSCAASGSIFPHNAMGWSRQAPGKERELVASITSRGGITYYADSVKGRFTISRDNAKNPLNLQMNSLKPEDTAVYYCAADLYIYPYDYWGQGTQVTVSS | low polyreactivity
30 | QVQLVESGGGLVQGGGSLRLSCAASGSIFTRNAMGWYRQAPGKEREFVAAISSSGVSTYYADSVKGRFTISRDNAKNTVYLQMNSLKPEDTALYYCAARWGTKSGRYDYWGQGTQVTVSS | high polyreactivity
31 | QVQLVESGGGLVQGGGSLRLSCASSGNTFYYYAMGWYRQAPGKERELVAAITRGGSTNYADSVKGRFTISRDNAKNTVYLEMISLKPEDTSVYYCAAEQRAPRFADYDYWGQGTQVTVSS | low polyreactivity
32 | QVQLVESGGGLVQLGGSLRLSCAASGSIIFSYAIGWSRQAPWKERELVADNRSSDDDTYYADSVKGRFTISRDNAQNTDYLDMNSLKPEDTGGYYCNADFGYWWDGRRYDYWVQGTQVTVSS | low polyreactivity
33 | QVQLVESGGGLVQPGCSLRLSCAASGSTFESYAMGWYRQAPGKERELVAAISWRVGSTYYADSVKGRFTISRDNAKNTVYLQMNSLKPEDNAVYYCASKGWYSHYGGYDYWGQGTQVTVSS | low polyreactivity
34 | QVQLVESGGGLVQPGGSLRLRCAASGSTLAYYTMGWSRHAPGKEMELVAAISGSGGSTYYADSVKGRFTIARDNAKNTVYLQMNSLKPEDSAVYYSIAVLYYYTSSEYDYWGQGTQVTVSS | high polyreactivity
35 | QVQLVESGGGLVQPGGSLRLSCAASGFIFGYYTMGWYRQAPGKERELVAVITSNGARTYYADSVKGRFTISRDNAKNTVYLQMNSLKPEDTAVYYCNAYRLSVSVGYDYWGQGTQVTVSS | high polyreactivity
36 | QVQLVESGGGLVQPGGSLRLSCAASGFIFRNYAMGWYRQAPGQERELVAAITRSGDNTYYADSVKGRFTISRDNAKNTVYLQMNSLKPEDTAVYYCAARDVQYQQALGGDYWGQGTQVTVSS | low polyreactivity
37 | QVQLVESGGGLVQPGGSLRLSCAASGFIFYYYAMGWYRQAPGKERELVAVLTESGSSTYYADSVKGRFTISRDNAKNTVYLQMNSLKPEDTAVYYCNADFWPYTGKYDYWGQGTQVTVSS | low polyreactivity
38 | QVQLVESGGGLVQPGGSLRLSCAASGFTFSKYAMGWYRQAPGKERELVAAISRSAGSTYYADSVKGRFTISRDNAKNTVYLQMNSLKPEDTAVYYCARDNPRRPSGYNYWGQGTQVTVSS | high polyreactivity
39 | QVQLVESGGGLVQPGGSLRLSCAASGIIFGSYAMGWYRQAPGKERELFAAITKSGGSTFYADSVKGRYTISRDNAKNTVYLQMNSLKPEDTAVYYCTAVKYRYLEYNYWGQGTQVTVSS | high polyreactivity
40 | QVQLVESGGGLVQPGGSLRLSCAASGIIFRYYAMGWYRQAPGKERELVAAITWSGGSTYYADSVKGRFTISRDNAKNTVYLQMNRLKPEDTAVFDCAADWWSVRGYAVDYWGQGTQVTVSS | high polyreactivity
41 | QVQLVESGGGLVQPGGSLRLSCAASGRIFGYYVMGWYRQAPRKERELVAAITGGGGSTYYADSVKGRFTISRDNEKNTVFLQMNSLKPEDTAVYYCAADLEYTNYDYDYWGQGTQVTVSS | high polyreactivity
42 | QVQLVESGGGLVQPGGSLRLSCAASGRNSTYTMGWYRQAPGKERELVATISTDASTNYADSVKGRFTISRDNAKNTVYLQMNSLKPEDTAVYYCAAVIVNQDYDYWGQGTQVTVSS | low polyreactivity
43 | QVQLVESGGGLVQPGGSLRLSCAASGRTFRWYAMGWYRQEPGKERELVAAISAGGGSTYYADSVKGRFTISRDNAKYTVSLQLTRVKPEDTAVYYCNRVAWNYGFGSSAYGYWGQGTQVTVSS | high polyreactivity
